Laboratory results taken from PMC8790125, “Molecular Mechanism of SARS-CoVs Orf6 Targeting the Rae1–Nup98 Complex to Compete With mRNA Nuclear Export” (Frontiers in Molecular Biosciences, 2021).

Target: T1, Rae1–Nup98_(GLEBS) complex (UniProt P78406 1-368; P52948 157-213)
T1 construct: Deca-histidine tags are called non-cleavable; also called Rae1–Nup98 complex; Rae1–Nup98 heterodimer; not shown: His10, C-terminal, kept; His10, N-terminal, kept
Test: ITC
Conditions: both partners purified

T1 sequence (P78406 whole entry, chain 1 of 2): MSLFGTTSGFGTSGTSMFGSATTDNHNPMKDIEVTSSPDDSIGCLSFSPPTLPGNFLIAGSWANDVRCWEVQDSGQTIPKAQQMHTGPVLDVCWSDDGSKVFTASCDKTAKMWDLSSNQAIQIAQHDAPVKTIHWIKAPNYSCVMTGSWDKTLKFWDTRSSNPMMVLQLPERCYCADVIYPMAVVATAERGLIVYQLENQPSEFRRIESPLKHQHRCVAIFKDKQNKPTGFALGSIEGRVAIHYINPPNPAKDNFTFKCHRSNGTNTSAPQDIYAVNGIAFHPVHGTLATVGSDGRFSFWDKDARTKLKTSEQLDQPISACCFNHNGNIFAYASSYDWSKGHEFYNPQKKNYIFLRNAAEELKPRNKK
T1 sequence (P52948 157-213, chain 2 of 2): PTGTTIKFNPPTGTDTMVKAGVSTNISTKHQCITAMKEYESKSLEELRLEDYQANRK

Q: SKSLTENKYSQLDEEQPMEID (also called SARS-CoV-2 Orf6 peptide) [SARS-CoV-2 Orf6CTT (21-mer peptide, residues 41–61 of SARS-CoV-2 Orf6)] was tested. Which Kd did it give?
A: The Kd was 142 nM.

Q: What about the “stoichiometry N” value of the same binder?
A: Its value is 1.
